Source: the supplement of paper PMC9170038

System: MS2 coat protein
Test: apparent KD of MS2 coat protein; designed switch direction (-1 OFF switch, 1 ON switch): -1; higher = weaker reporter binding
Method in brief: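 For each design, the apparent KD is the median over clusters of curves fitted to normalised cluster fluorescence. Clusters held RNA switches with common flanks, transcribed on Illumina chips by stalled E. coli RNA polymerase. These were titrated with SNAP-549-labelled MS2 coat protein, doubling from 0.7 or 1.5 nM to 3 µM, without input, with 200 uM small-molecule ligand, or with an oligonucleotide input.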

[1] = Eterna round: R95, input ligand: FMN 200 uM
[2] = Eterna round: R95, input ligand: microRNA oligo, concentration not stated
[3] = Eterna round: R95, input ligand: none
[4] = input ligand: microRNA oligo, concentration not stated

Sequence | apparent KD of MS2 coat protein [1] | apparent KD of MS2 coat protein [2] | apparent KD of MS2 coat protein [3] | apparent KD of MS2 coat protein (input ligand: FMN 200 uM) | apparent KD of MS2 coat protein [4] | apparent KD of MS2 coat protein (input ligand: none)
AAAACGGCAGGAUAUCGGAACAAUGACAUGAGGAUCACCCAUGUGAUCGUUUCACUUGGCCGAGAAGGGCCAAAAU [Xeinbelele] (puzzle: Exclusion 5) | 54.6 nM | 18.6 nM | 17.4 nM | – | – | –
AUAUUACGAGGAUAUCGUUUUUUUCACAUGAGGAUCACCCAUGUUAUUUAUGUUUCGUUUCGAGAAGGCGUAAGUU [JR_E5_Sub069] (puzzle: Exclusion 5) | – | 22.3 nM | – | – | – | –
CAUACACAUGAGGAUCACCCAUGUGAGGAUAUGCGUACGUUGUCCGUAGGCGACGUGCGCAGAAGGCGCGUGAG [JL-ex1-3.14 Eli mod] (puzzle: Exclusion 1) | – | 45.3 nM | – | – | – | –
AGUACUGACACGAAAGUGUUAGUACAAUAAGCUUGUGAAACAUGAGGAUCACCCAUGUCCUCAUAAGCUCGUCUUAU [salish99_TOv2_r3_017] (Eterna round: R96, puzzle: Sensor v3, turn-off variant 2) | – | – | – | 15.9 nM | 469 nM | 17.9 nM
UUCUGCACGCUGCGGUCCUACAUGAGGAUCACCCAUGUGGUCUGGUGGCGUGGGUCGCCGGACUUGGCUCGUCUUGG [salish99_S_TOV1_R5_049] (Eterna round: R97, puzzle: Sensor, turn-off variant 1) | – | – | – | 15.4 nM | – | 14.9 nM
AAGCAGUCAGGAUAUCGUUAAUUUAGUUGUUUGUAUUAGUUCGAGAAGGGACAUGAGGAUCACCCAUGUAUGAA [Ex4 #42] (Eterna round: R97, puzzle: Exclusion 4) | – | – | – | 51.5 nM | – | 48.3 nM
GGUUGGCGAGGAUAUACAUGAGGAUCACCCAUGUGAGAGAAAAUAGUGAGGAAGAAAAGUAGAAGGCGCUGACG [salish99_ex3_r3_014] (puzzle: Exclusion 3) | 98.1 nM | 47.7 nM | 37.5 nM | – | – | –
AGUACUAUGCGAGCUGACUUGCGUAGUGCAGCAAGUGAAACAUGAGGAUCACCCAUGUCCUCAUUUGCUCGUCUUAU [Mat - Sensor v3 - Turn-off var 2 - D1] (Eterna round: R96, puzzle: Sensor v3, turn-off variant 2) | – | – | – | 31.1 nM | 662 nM | 34.1 nM
ACCUAACAUGAGGAUCACCCAUGUCAGGAUAUCCAAGCGAAAGCAAAAGCGAAAGCAAGGAGAAGGGACAGAGG [ChP 04-04-2015 #8] (puzzle: Exclusion 1) | 62.2 nM | 32.4 nM | 28.4 nM | – | – | –
AAGAAUGAAGGAUAUACAUGAGGAUCACCCAUGUAAAAAAAAUUUUUUAGUUUUUCAUGUAGAAGGUCAAGAAG [JR_Exclusion3_Sub001] (puzzle: Exclusion 3) | 47.9 nM | 41.8 nM | 43.6 nM | – | – | –
GGACGGUUAGUCAGGAUAUGCUCUACCUCGGUAGAGCAGAAGGGACAUGAGGAUCACCCAUGUGAAAACUGUUC [Omei Ex4B B37] (Eterna round: R97, puzzle: Brourd's mod of Exclusion 4) | – | – | – | 30.2 nM | – | 24.9 nM
GAGGGACAUGAGGAUCACCCAUGUGAGGAUAUGUGAGAAGGAUUGGAGAGAAAAGGAAACAGAAGGCGCGGGAG [JR_Exclu1_Sub086] (puzzle: Exclusion 1) | 59.5 nM | 50.9 nM | 54.7 nM | – | – | –
UUGGUUGUGGUAGGAUAUCCGUUGGAAACCGUCGGAGAAGGACCACAGUCACUGGGUCUUUGUCUGGUGGACUGGAAUCACCAU [pwkr exNG1 F6.21] (Eterna round: R96, puzzle: Exclusion NG 1) | – | – | – | 295 nM | 157 nM | 224 nM
CGUUGAUGAGGAUAUCGAUGUUAGUACAUGAGGAUCACCCAUGUUAUCCAAGUGUCGGAUCGAGAAGGUAUUGGAC [LRO-Ex5-19] (puzzle: Exclusion 5) | – | 241 nM | – | – | – | –
UAAACAAGCUAAAGAUCCCACAUGAGGAUCACCCAUGUGCUCGUCUUGUAACGUACUGUGACGAAAGUCACGGUACG [JL TOV1 3.11] (Eterna round: R97, puzzle: Sensor, turn-off variant 1) | – | – | – | 19.1 nM | – | 22.8 nM
AGUACUAUCACGAAAGUGAUAGUACAAAUAGCAAGUGAAACAUGAGGAUCACCCAUGUCCUCAUUUGCUCGUCUUAU [Mat - Sensor v2 -ver2- JL mod - D65] (Eterna round: R96, puzzle: Sensor v2, turn-off variant 2) | – | – | – | 12.1 nM | 409 nM | 14.3 nM
GGUCGCAGGACAGGAUAUCCAAGCGAUCUAACAUGAGGAUCACCCAUGUGCUAAGGCAGAGGGACGGAGAAGGGUCGAUCGGCC [Inqusodire] (Eterna round: R96, puzzle: Exclusion NG 2) | – | – | – | 166 nM | 42.4 nM | 58.3 nM

Sequence | apparent KD of MS2 coat protein [1] | apparent KD of MS2 coat protein [2] | apparent KD of MS2 coat protein [3] | apparent KD of MS2 coat protein (input ligand: FMN 200 uM) | apparent KD of MS2 coat protein [4] | apparent KD of MS2 coat protein (input ligand: none)
AAGAAACAUGAGGAUCACCCAUGUGAGGAUAUGAUGAAGAAAAGAAAAGAAAGAAGAAUCAGAAGGCACAAAGG [salish99-ex1_r3_043] (puzzle: Exclusion 1) | 83.6 nM | 48.2 nM | 66.5 nM | – | – | –
GUGUACAGAGGAUAUACUUAUGGAGUCACGAAAGUGGCUUCACAUGAGGAUCACCCAUGUAGAAGGCUGUACAC [Dot plot directed v11] (puzzle: Exclusion 2) | – | 23.7 nM | – | – | – | –
AGUAACUAUCACGAAAGUGAUAGUUACAAAACAAGUGGAACAUGAGGAUCACCCAUGUCCUCAUUUGCUCGUCUUAU [Sensor 3 - 4] (puzzle: Sensor v3, turn-off variant 2) | 107 nM | 238 nM | 166 nM | – | – | –
GGUUGGCGAGGAUAUACAUGAGGAUCACCCAUGUGAGAAUAAAAAGUGAGGAAGAAAAGUAGAAGGCGCUGACG [Mat - Exclusion 3 - Mod of Salish D5] (puzzle: Exclusion 3) | 76.5 nM | 31.6 nM | 36.3 nM | – | – | –
UUAGGCUGAAGAUCAAUUAAUUAACAUGAGGAUCACCCAUGUAAGGAUAUCAGCUCGUUUAGAGCUGAGAAGGUACAUGCAGCC [ExNG3/18-A2] (Eterna round: R96, puzzle: Exclusion NG 3) | – | – | – | 351 nM | 121 nM | 118 nM
AGGUCACAUGAGGAUCACCCAUGUCAGGAUAUCGUCACUGGAGCCUCGGCUCCAGUGACGAGAAGGGAUAAUUA [E1/8-A2] (Eterna round: R97, puzzle: Exclusion 1) | – | – | – | 75.3 nM | – | 50.5 nM
AAGAAGAUCGGAGGAUAUGGAGCUGAAACGGCGCUAGAAGGCCGUCUAGUGUAACAUGAGGAUCACCCAUGUAGGGACCUCUAA [EX ng 1 4.2] (Eterna round: R96, puzzle: Exclusion NG 1) | – | – | – | 944 nM | 633 nM | 558 nM
CCUCUACAUGAGGAUCACCCAUGUGAGGAUAUCAAAAUCAGGGCGGCUCCCUGACCCAUGAGAAGGUGCAUGGA [EX1 A.5] (Eterna round: R97, puzzle: Exclusion 1) | – | – | – | 31 nM | – | 16.8 nM
CCAUCACAUGAGGAUCACCCAUGUGAGGAUAUGUUUUUGGUGCGUAUAAAGCCUGGGAACAGAAGGUACAGGGA [Eternabot (L2) Solution 50] (Eterna round: R97, puzzle: Exclusion 1) | – | – | – | 15.3 nM | – | 12.9 nM
GAGUGACAUGAGGAUCACCCAUGUGAGGAUAUGCGACGGACCAAAUUAACAAUAGAAGGCAGAAGGCGCAUAAA [Exclusion 1 V10] (puzzle: Exclusion 1) | 26.9 nM | 33.1 nM | 31.1 nM | – | – | –
UGUUUAUAUGAAGGAUAUACUUAACAUGAGGAUCACCCAUGUGGUGUUGUGAGUGAGUGAGUUUAGUAGAAGGUCAAUUAUUUU [JMF's solution 31] (Eterna round: R96, puzzle: Exclusion NG 2) | – | – | – | – | 303 nM | –
AUGACAGGACAUGAGGAUCACCCAUGUACACGACCAAUGACCGAGGAUAUCGAUUGCAUGCAGGUCGAGAAGGCGGAGUAUCCA [Eternabot solution 3] (Eterna round: R96, puzzle: Exclusion NG 3) | – | – | – | 18.2 nM | 30.9 nM | 28.1 nM
AAGAUACAUGAGGAUCACCCAUGUGAGGAUAUCAGCACGACCGUGAGGUCGAUAAGAAUGAGAAGGCACAAUGG [JL-ex1-4.51] (Eterna round: R97, puzzle: Exclusion 1) | – | – | – | 103 nM | – | 279 nM
UAUUAGCAAGUAAGGUCCCACAUGAGGAUCACCCAUGUGCUCGUCUCCUCAGGUACGGAGCGGAAACUCCCGAUAUG [Sensor-V1 #92] (Eterna round: R97, puzzle: Sensor, turn-off variant 1) | – | – | – | 121 nM | – | 102 nM
UAAUACAAGCAAAGAUCCUACAUGAGGAUCACCCAUGUGCUCGUCUUGUAAAGUACUAUCACGAAAGUGAUAGUACA [Mat - Sensor v3 - turn-off var 1 - Eli Mod - D77] (puzzle: Sensor v3, turn-off variant 1) | 41.2 nM | 17.1 nM | 114 nM | – | – | –
GCAAGCUUUUAGAUUUUCAACAUGAGGAUCACCCAUGUUCGUCUUGUGCUCGGGCUUGGGCGGUGUCCGGGUUUGGG [JL TOV1 3.76 sellena mod] (Eterna round: R97, puzzle: Sensor, turn-off variant 1) | – | – | – | 36.2 nM | – | 38.3 nM
AAUAACAAGCAGAUCCUAAACAUGAGGAUCACCCAUGUGUUCGUCUUGUAAAGUACUAUCACGAAAGUGAUAGUACA (Eterna round: R97, puzzle: Sensor, turn-off variant 1) | – | – | – | 68.7 nM | – | 66.2 nM
